Target: T1, human IL-4 receptor alpha chain (Interleukin-4 receptor subunit alpha, Uniprot #P24394, SEQ ID NO: 12) (human, UniProt P24394 26-232, limits assumed)
T1 construct: also called IL-4RA; human IL-4RA
T1 sequence: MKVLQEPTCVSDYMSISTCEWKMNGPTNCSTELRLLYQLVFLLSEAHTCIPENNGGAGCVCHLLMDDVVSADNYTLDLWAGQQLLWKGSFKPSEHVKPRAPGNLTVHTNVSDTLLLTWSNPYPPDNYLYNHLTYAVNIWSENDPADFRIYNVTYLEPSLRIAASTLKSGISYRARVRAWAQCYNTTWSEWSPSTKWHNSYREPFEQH
Test: method not stated; target IL-4RA implied by the text

Kd: 0.154 nM | koff: 0.0029 s⁻¹ | kon: 1.9e+07 M⁻¹ s⁻¹
B1: IL-4 double mutant IL-4 (R121D, Y124D) (ligand, UniProt P05112 25-153, looked up)
chain: HKCDITLQEIIKTLNSLTEQKTLCTELTVTDIFAASKNTTEKETFCRAATVLRQFYSHHEKDTRCLGATAQQFHRHKQLIRFLKRLDRNLWGLAGLNSCPVKEANQSTLENFLERLKTIMDEKDSKCSS
notes: they probably count on mature IL-4, not on the precursor entry; also called IL-4 mutant (R121D, Y124D); IL-4 mutant
